The values that follow come from paper PMC10699770 (Science Advances, 2023).

This assay addresses full-length NAIP5 with an N-terminal Flag tag (mouse, UniProt Q9R016 1-1403). In words: cryo-EM structure.

Sequence of full-length NAIP5 with an N-terminal Flag tag (Q9R016 whole entry): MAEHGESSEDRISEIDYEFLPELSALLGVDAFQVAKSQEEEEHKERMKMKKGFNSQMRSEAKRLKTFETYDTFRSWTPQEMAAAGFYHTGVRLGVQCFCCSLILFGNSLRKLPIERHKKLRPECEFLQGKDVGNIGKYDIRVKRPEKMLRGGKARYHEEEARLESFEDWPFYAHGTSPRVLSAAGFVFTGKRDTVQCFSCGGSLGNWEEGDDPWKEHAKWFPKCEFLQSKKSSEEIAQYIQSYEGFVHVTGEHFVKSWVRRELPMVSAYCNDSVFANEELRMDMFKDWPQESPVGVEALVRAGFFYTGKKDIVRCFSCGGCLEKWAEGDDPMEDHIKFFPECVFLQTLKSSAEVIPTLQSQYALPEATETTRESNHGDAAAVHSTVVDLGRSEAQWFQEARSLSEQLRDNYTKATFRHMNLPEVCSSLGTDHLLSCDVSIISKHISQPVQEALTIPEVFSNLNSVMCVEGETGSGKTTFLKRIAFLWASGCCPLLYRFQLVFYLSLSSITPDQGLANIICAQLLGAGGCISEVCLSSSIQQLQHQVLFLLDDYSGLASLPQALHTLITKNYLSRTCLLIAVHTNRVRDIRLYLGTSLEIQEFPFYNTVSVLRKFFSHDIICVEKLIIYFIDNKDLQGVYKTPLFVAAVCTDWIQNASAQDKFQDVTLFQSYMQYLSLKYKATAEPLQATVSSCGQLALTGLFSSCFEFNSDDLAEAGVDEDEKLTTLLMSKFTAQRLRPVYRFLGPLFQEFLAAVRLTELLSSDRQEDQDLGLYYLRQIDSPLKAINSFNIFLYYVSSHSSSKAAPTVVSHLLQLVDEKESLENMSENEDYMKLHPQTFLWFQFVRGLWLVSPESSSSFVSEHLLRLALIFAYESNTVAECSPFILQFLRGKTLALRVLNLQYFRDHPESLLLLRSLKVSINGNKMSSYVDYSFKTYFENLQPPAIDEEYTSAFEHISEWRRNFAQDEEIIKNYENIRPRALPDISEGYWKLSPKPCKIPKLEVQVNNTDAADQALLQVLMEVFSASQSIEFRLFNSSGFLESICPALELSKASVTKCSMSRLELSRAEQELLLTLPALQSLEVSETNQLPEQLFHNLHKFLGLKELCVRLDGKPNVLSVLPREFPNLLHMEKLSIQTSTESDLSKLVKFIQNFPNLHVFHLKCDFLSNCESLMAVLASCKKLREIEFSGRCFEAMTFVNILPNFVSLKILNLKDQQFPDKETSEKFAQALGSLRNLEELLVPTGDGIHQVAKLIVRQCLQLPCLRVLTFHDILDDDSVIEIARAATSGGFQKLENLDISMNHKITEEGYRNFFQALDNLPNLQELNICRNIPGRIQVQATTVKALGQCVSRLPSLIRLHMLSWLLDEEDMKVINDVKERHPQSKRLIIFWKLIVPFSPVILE

B1: full-length S. typhimurium flagellin FliC with N-terminal His tag (natural protein)
chain: MAQVINTNSLSLLTQNNLNKSQSALGTAIERLSSGLRINSAKDDAAGQAIANRFTANIKGLTQASRNANDGISIAQTTEGALNEINNNLQRVRELAVQSANSTNSQSDLDSIQAEITQRLNEIDRVSGQTQFNGVKVLAQDNTLTIQVGANDGETIDIDLKQINSQTLGLDTLNVQQKYKVSDTAATVTGYADTTIALDNSTFKASATGLGGTDQKIDGDLKFDDTTGKYYAKVTVTGGTGKDGYYEVSVDKTNGEVTLAGGATSPLTGGLPATATEDVKNVQVANADLTEAKAALTAAGVTGTASVVKMSYTDNNGKTIDGGLAVKVGDDYYSATQNKDGSISINTTKYTADDGTSKTALNKLGGADGKTEVVSIGGKTYAASKAEGHNFKAQPDLAEAAATTTENPLQKIDAALAQVDTLRSDLGAVQNRFNSAITNLGNTVNNLTSARSRIEDSDYATEVSNMSRAQILQQAGTSVLAQANQVPQNVLSLLR
With B1, the binding result was “binds”.
